The nature of this series: protein stability index of a GFP-peptide fusion (GPS, HEK-293T) (PSI 1-6); higher = more stable.
The mark [1] stands for this setting: treatment: DMSO, c terminus: a fixed tail appended.
The mark [2] stands for this setting: treatment: MLN4924 1 uM, 8 h, c terminus: a fixed tail appended.

± gives the standard deviation.
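Further: 24-mer peptide tiles fused after GFP, lentivirally expressed, FACS-sorted into six equal bins by GFP/DsRed ratio, decoded by Illumina sequencing, PSI is the read-weighted mean bin number.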

Turning to AVMRGQILNLTQALKDNKSPLHLV [PI4K2A], the protein stability index under setting [1] turned out to be 2.33 ± 0.33 and the protein stability index under setting [2] stood at 2.3 ± 0.24.

As to AVNRARRPLARPIKPNEILPPEKG [RHOBTB2], the protein stability index was 4.24 ± 0.12 under setting [1] and 4.27 ± 0.12 under setting [2].

As for AVRCASGRCTVRDFIHRHCQDQNV [SDE2], the protein stability index came out at 2.59 ± 0.41 under setting [1] and 2.39 ± 0.5 under setting [2].

Consider AYGHRQCLELVSCFVLFSLTHTHT [ANKRD44], for which the protein stability index runs as follows: under setting [1], 2.52 ± 1; under setting [2], 3.3 ± 0.47.

Take AYIQCQFEDLNKRKDTKEIYTHFT [GNAI1]: the protein stability index was determined as 2.14 ± 0.49 under setting [1] and 2.25 ± 0.3 under setting [2].

Regarding CAYRTHLVAGIGFYQHLLLYIQSH [SMG5], the protein stability index by setting is: under setting [1], 3.01 ± 0.63; under setting [2], 3.34 ± 0.87.

In the case of CDDSFTPQEKLWQQLRRGRYVEFN [CPOX], the protein stability index runs as follows: under setting [1], 3.08 ± 0.14; under setting [2], 2.89 ± 0.3.

Take CEDLDELHYQDTDSDVPEQRDSKC [MYBL2]: the protein stability index is, setting by setting: under setting [1], 5.65 ± 0.37; under setting [2], 5.54 ± 0.24.

For CEENEQSLPPPAGLNSSWVELPMN [BNIP3L], the protein stability index was 4.65 ± 0.34 under setting [1] and 4.41 ± 0.25 under setting [2].

As for CEVMQEIVDQVLEEDFDSEQLSVL [INTS3], the protein stability index reads like this: under setting [1], 5.06 ± 0.14; under setting [2], 5.16 ± 0.12.

For the sequence CGFGGGAGSVFGGGFGGGVGGGFG [KRT15], the protein stability index is 2.27 ± 0.49 under setting [1] and 2.77 ± 0.23 under setting [2].

As for CGTPNYLSPEVLNKQGHGCESDIW [PLK2], the protein stability index was 2.78 ± 0.28 under setting [1] and 2.83 ± 0.28 under setting [2].

On to CGYEGCRYGCGHRGCGDGCCCPSC [KRTAP19-2], for which the protein stability index runs as follows: under setting [1], 3.72 ± 0.31; under setting [2], 3.72 ± 0.39.

Consider CHLCVNYIEMQTDPANCDYVIVSG [YJU2B], for which the protein stability index came out at 2.71 ± 0.26 under setting [1] and 2.57 ± 0.33 under setting [2].

As for CHSFISGTAPLNQETAEFFLSLDI [ACSBG2], the protein stability index is, setting by setting: under setting [1], 3.01 ± 1.4; under setting [2], 2.6 ± 1.6.

Consider CKRNFVAVYDGSSSVEDLKAKFCS [NETO1], for which the protein stability index was 2.78 ± 0.39 under setting [1] and 2.9 ± 0.36 under setting [2].

On to CLKEFPEKQELHRNMLGLLGNVAE [ZER1], for which the protein stability index runs as follows: under setting [1], 3.19 ± 0.15; under setting [2], 3.3 ± 0.23.

As to CLRVGMLKEGVRLDRVRGGRQKYK [ESRRA], the protein stability index is, setting by setting: under setting [1], 3.12 ± 0.24; under setting [2], 3.42 ± 0.46.

With CNSHMPYGYAAQARARERERLAHS [KCNA4], the protein stability index under setting [1] worked out at 3.1 ± 0.23 and the protein stability index under setting [2] is 3.13 ± 0.31.

As for CPGLRLPGSLAGRRAGPAIWAQGW [AUH], the protein stability index by setting is: under setting [1], 2.83 ± 0.15; under setting [2], 1.82 ± 0.35.

In the case of CPVEYNNDTNSFTVDCEPSDLFRL [CDS2], the protein stability index came to 3.94 ± 0.21 under setting [1] and 4.03 ± 0.17 under setting [2].

In turn, CQILELLNAELEEKMMQEAEKLKA [CCDC89] returned a protein stability index under setting [1] of 3.76 ± 0.26 and a protein stability index under setting [2] of 3.65 ± 0.17.

Take CSEDWVGYQRKCYFISTVKRSWTS [CD69]: the protein stability index under setting [1] amounted to 2.36 ± 0.33 and the protein stability index under setting [2] is 2.65 ± 0.49.

As to CSHSFLLAVMGYDRYIAICNPLRY [OR10K2], the protein stability index reads like this: under setting [1], 2.87 ± 0.52; under setting [2], 2.88 ± 0.58.

Take CSKSFRQRAGLIMHQVTHFRGLI [ZNF449]: the protein stability index reads like this: (treatment: DMSO, c terminus: native) 2.92 ± 0.45; (treatment: MLN4924 1 uM, 8 h, c terminus: native) 3.08 ± 0.35.

In the case of CTEILTEKKDTITNDSLSLKPSWF [MIA2], the protein stability index reads like this: under setting [1], 3.23 ± 0.28; under setting [2], 3.42 ± 0.42.

Sequence CTKTCGVGVRMRDVKCYQGTDIVR [ADAMTSL2] displayed a protein stability index under setting [1] of 3.27 ± 0.4 and a protein stability index under setting [2] of 2.65 ± 0.33.

CTRFTDEYQLFEELGKGAFSVVRR [CAMK2D] yielded a protein stability index under setting [1] of 2.81 ± 0.31 and a protein stability index under setting [2] of 2.84 ± 0.39.

In the case of CVDVVFYNPDLKKVVEAHKIVLCA [RHOBTB3], the protein stability index is, setting by setting: under setting [1], 3.01 ± 1.1; under setting [2], 2.74 ± 0.81.

For the sequence CVKLCTGHEYAAKIINTKKLSARD [CAMK2B], the protein stability index reads like this: under setting [1], 3.14 ± 0.18; under setting [2], 3.18 ± 0.28.

On to DALRNLKCGSGARGGDGEVASAPL [TRADD], for which the protein stability index amounted to 4.15 ± 0.38 under setting [1] and 4.05 ± 0.3 under setting [2].

On to DAVGMLGIEEVTYENCLQALADVE [NLN], for which the protein stability index by setting is: under setting [1], 4.25 ± 0.27; under setting [2], 3.9 ± 0.34.

Regarding DAVTIPCGHTFCRLCLPALSQMGA [TRIM15], the protein stability index is 2.47 ± 0.35 under setting [1] and 2.17 ± 0.27 under setting [2].

For the sequence DCGPSRADRCSPKEDQAWDGASQD [FBXO34], the protein stability index is, setting by setting: under setting [1], 5.37 ± 0.24; under setting [2], 5.25 ± 0.28.

With DDFHTNDVCSFPNALVTKLLLDCG [FEM1B], the protein stability index under setting [1] was found to be 2.55 ± 0.26 and the protein stability index under setting [2] is 2.44 ± 0.2.

Consider DEAKAPHWTSAPLTEASAHSHPPE [MAP2], for which the protein stability index amounted to 5.39 ± 0.16 under setting [1] and 5.37 ± 0.075 under setting [2].

For DEKINIYCLTCEVPTCSMCKVFGI [TRIM63], the protein stability index is 2.43 ± 0.14 under setting [1] and 2.45 ± 0.32 under setting [2].

As to DEMVIVKDIDMFSMCEHHLVPFVG [GCH1], the protein stability index is 2.76 ± 0.22 under setting [1] and 2.64 ± 0.37 under setting [2].

As to DEPVCGRPLGIRAGPNGTLFVADA [APMAP], the protein stability index turned out to be 3.83 ± 0.22 under setting [1] and 4.03 ± 0.27 under setting [2].

Take DETHFGKMGSYYINRTFFFDVHPP [POMT2]: the protein stability index stood at 2.45 ± 0.21 under setting [1] and 2.23 ± 0.33 under setting [2].

As for DFPEDGLKIFTEDLPEVESLPRDR [VPS39], the protein stability index reads like this: under setting [1], 5.31 ± 0.31; under setting [2], 5.39 ± 0.068.

As for DFQGRILSVDPEEEREEGPPRIPQ [RHOBTB1], the protein stability index came to 5.29 ± 0.31 under setting [1] and 5.22 ± 0.22 under setting [2].

Turning to DFSGLTLDGALRTFLKAFPLMGET [PSD2], the protein stability index reads like this: under setting [1], 1.91 ± 0.24; under setting [2], 2.05 ± 0.34.

In the case of DGTSQSTGGSADLFGGFADFGSAA [CLINT1], the protein stability index worked out at 4.71 ± 0.25 under setting [1] and 4.46 ± 0.27 under setting [2].

Take DHQDSDEFCRNTLCAPEVISLINT [FAF2]: the protein stability index under setting [1] was 3.72 ± 0.37 and the protein stability index under setting [2] came to 3.67 ± 0.38.

DILMEFGHLFPPPTPIFAGGANDR [WSB1] had a protein stability index under setting [1] of 2.41 ± 0.46 and a protein stability index under setting [2] of 2.51 ± 0.45.

For DILPRWAIIGWLLTTCTSNVAASN [INTS3], the protein stability index runs as follows: under setting [1], 3.24 ± 0.47; under setting [2], 3.08 ± 0.51.

As for DKLGELSDKIGSTIDDTISKFRRK [CLINT1], the protein stability index by setting is: under setting [1], 3.32 ± 0.58; under setting [2], 3.4 ± 0.39.

On to DLAEFAKKQPWWRKLFGQESGPSA [FUNDC2], for which the protein stability index worked out at 2.65 ± 0.13 under setting [1] and 2.58 ± 0.17 under setting [2].

Take DLCSDVNVCSLLAQTPLHVAAETG [RIPK4]: the protein stability index runs as follows: under setting [1], 3.46 ± 0.4; under setting [2], 3.21 ± 0.47.

On to DLFGWSQLIYNHITTRVNSEQEHF [ADD1], for which the protein stability index amounted to 2.72 ± 0.51 under setting [1] and 2.55 ± 0.41 under setting [2].

For DLIDNLKEAQYIRTERVEQAFRAI [PCMTD1], the protein stability index came to 2.29 ± 0.17 under setting [1] and 2.27 ± 0.14 under setting [2].

On to DNARLAADDFRTKYEHELALRQTV [KRT16], for which the protein stability index reads like this: under setting [1], 4.01 ± 0.17; under setting [2], 4.11 ± 0.26.
